For orientation: koff means the rate constant with which the complex falls apart. Read a high koff as a short-lived complex. As usually defined, the kon is a measure of how fast the partners come together.

Common to all, as to assay: BLI; biotinylated trimeric gp140 immobilised on streptavidin biosensors; Fabs 1-32 uM in solution; 30 C, 1,000 r.p.m.; kinetic buffer (1X PBS, 0.01% BSA, 0.02% Tween 20, 0.005% NaN3); association 4 min, dissociation 8 min; 1:1 binding model; mean of curves with R2 >= 0.95
Background: BLI is a label-free optical method that tracks binding on a fibre tip over time.

The target of assay [1] is 426c.TM5ΔV1-3 soluble trimeric gp140 (426c N276D S278R N460D N463D G471S ΔV1 V2 V3) (HIV-1 (clade C, 426c)).
For assay [2], the target named is 426c.TM4ΔV1-3 soluble trimeric gp140 (426c S278R N460D N463D G471S ΔV1 V2 V3) (HIV-1 (clade C, 426c)).
For assay [3], the target named is 426c.TM5 soluble trimeric gp140 (426c N276D S278R N460D N463D G471S) (HIV-1 (clade C, 426c)).
Assay [4] addresses 426c.TM3 soluble trimeric gp140 (426c S278R N460D N463D) (HIV-1 (clade C, 426c)).
In assay [5] the target is 426c.TM4 soluble trimeric gp140 (426c S278R N460D N463D G471S) (HIV-1 (clade C, 426c)).
Assay [6] has as its target 426c.TM2 soluble trimeric gp140 (426c S278A N460D N463D) (HIV-1 (clade C, 426c)).
Assay [7] addresses 426c.TM1ΔV1-3 soluble trimeric gp140 (426c N276D N460D N463D ΔV1 V2 V3) (HIV-1 (clade C, 426c)).
Assay [8] deals with 426c.TM1 soluble trimeric gp140 (426c N276D N460D N463D) (HIV-1 (clade C, 426c)).

Consider germline 3BNC60 Fab, for which, in assay [1], the Ka worked out at 2180 M⁻¹, the off-rate constant (koff) came to 0.477 s⁻¹ and the kon is 1040 M⁻¹ s⁻¹. In assay [2], this substance displayed a Ka of 3490 M⁻¹, a koff of 0.398 s⁻¹ and an on-rate (kon) of 1410 M⁻¹ s⁻¹.
In the case of germline 12A21 Fab, the Ka in assay [3] was 38500 M⁻¹; in assay [1], 30800 M⁻¹; in assay [4], 174000 M⁻¹; in assay [5] it was 334000 M⁻¹; in assay [2] it was 311000 M⁻¹; in assay [6], 201000 M⁻¹. In addition, the koff turned out to be 0.403 s⁻¹ in assay [3]; 0.0515 s⁻¹ in assay [1]; 0.279 s⁻¹ in assay [4]; 0.168 s⁻¹ in assay [5]; 0.0305 s⁻¹ in assay [2]; 0.274 s⁻¹ in assay [6]. Moreover, the kon came to 15500 M⁻¹ s⁻¹ in assay [3]; 1590 M⁻¹ s⁻¹ in assay [1]; 48500 M⁻¹ s⁻¹ in assay [4]; 56200 M⁻¹ s⁻¹ in assay [5]; 9470 M⁻¹ s⁻¹ in assay [2]; 55200 M⁻¹ s⁻¹ in assay [6].
For germline VRC01 Fab, the Ka in assay [7] came to 3.09e+06 M⁻¹; in assay [3], 1.14e+07 M⁻¹; in assay [1] it was 1.06e+07 M⁻¹; in assay [8], 1.31e+06 M⁻¹; in assay [4], 562000 M⁻¹; in assay [5] it was 1.08e+06 M⁻¹. Also, the Ka amounted to 1.47e+06 M⁻¹ in assay [2] and 628000 M⁻¹ in assay [6]. Moreover, the off-rate constant (koff) in assay [7] was 0.00157 s⁻¹; in assay [3], 0.00225 s⁻¹; in assay [1] it was 0.00065 s⁻¹; in assay [8] it was 0.0113 s⁻¹; in assay [4] it was 0.064 s⁻¹; in assay [5], 0.0264 s⁻¹. For the same substance, the koff in assay [2] was 0.00426 s⁻¹; in assay [6], 0.0579 s⁻¹. For the same substance, the association rate constant (kon) came out at 4840 M⁻¹ s⁻¹ in assay [7]; 25600 M⁻¹ s⁻¹ in assay [3]; 6860 M⁻¹ s⁻¹ in assay [1]; 14800 M⁻¹ s⁻¹ in assay [8]; 36000 M⁻¹ s⁻¹ in assay [4]; 28700 M⁻¹ s⁻¹ in assay [5]. The kon in assay [2] was determined as 6250 M⁻¹ s⁻¹; in assay [6], 36300 M⁻¹ s⁻¹.
Regarding germline VRC-CH31 Fab, in assay [1], the Ka was determined as 8950 M⁻¹, the koff is 0.24 s⁻¹ and the kon is 2400 M⁻¹ s⁻¹.
As to germline VRC-PG19 Fab, the Ka in assay [7] amounted to 353000 M⁻¹; in assay [3], 5.22e+06 M⁻¹; in assay [1], 8.93e+06 M⁻¹; in assay [8], 287000 M⁻¹; in assay [4], 2.24e+06 M⁻¹; in assay [5] it was 5.45e+06 M⁻¹. For the same substance, the Ka in assay [2] was found to be 8.9e+06 M⁻¹; in assay [6], 416000 M⁻¹. Besides, the off-rate (koff) in assay [7] is 0.0315 s⁻¹; in assay [3], 0.016 s⁻¹; in assay [1], 0.00216 s⁻¹; in assay [8] it was 0.14 s⁻¹; in assay [4], 0.0442 s⁻¹; in assay [5], 0.018 s⁻¹. Moreover, the off-rate (koff) was found to be 0.0027 s⁻¹ in assay [2] and 0.172 s⁻¹ in assay [6]. The kon was found to be 11100 M⁻¹ s⁻¹ in assay [7]; 83800 M⁻¹ s⁻¹ in assay [3]; 19300 M⁻¹ s⁻¹ in assay [1]; 40000 M⁻¹ s⁻¹ in assay [8]; 98900 M⁻¹ s⁻¹ in assay [4]; 98000 M⁻¹ s⁻¹ in assay [5]. Moreover, the results for the on-rate constant (kon) in assay [2] and in assay [6] were 24100 M⁻¹ s⁻¹ and 71500 M⁻¹ s⁻¹, respectively.
With germline VRC-PG20 Fab, the Ka in assay [7] worked out at 1.24e+07 M⁻¹; in assay [3], 1.78e+08 M⁻¹; in assay [1], 2.45e+08 M⁻¹; in assay [8] it was 1.4e+07 M⁻¹; in assay [4], 1.2e+07 M⁻¹; in assay [5] it was 2.28e+07 M⁻¹. In addition, the Ka in assay [2] came to 3.84e+07 M⁻¹; in assay [6], 3.88e+06 M⁻¹. Moreover, the off-rate (koff) in assay [7] stood at 0.00104 s⁻¹; in assay [3], 0.000553 s⁻¹; in assay [1], 0.000149 s⁻¹; in assay [8], 0.00343 s⁻¹; in assay [4] it was 0.00487 s⁻¹; in assay [5] it was 0.00257 s⁻¹. Further, the koff in assay [2] was found to be 0.000511 s⁻¹; in assay [6] it was 0.0129 s⁻¹. Moreover, the on-rate constant (kon) in assay [7] is 13500 M⁻¹ s⁻¹; in assay [3] it was 112000 M⁻¹ s⁻¹; in assay [1], 41200 M⁻¹ s⁻¹; in assay [8], 49700 M⁻¹ s⁻¹; in assay [4], 60500 M⁻¹ s⁻¹; in assay [5], 61100 M⁻¹ s⁻¹. Besides, the kon in assay [2] worked out at 24500 M⁻¹ s⁻¹; in assay [6] it was 50900 M⁻¹ s⁻¹.

These data come from PMC4770077.
